What was measured:
[1] = molecular target: TopBP1 BRCT domains 4 and 5 (UniProt Q92547); experiment: biotin-peptide pull-down of purified GST-BRCT4-5; details: reference: nonphosphorylated peptide; sites S304
[2] = molecular target: TopBP1 (UniProt Q92547); experiment: biotin-peptide streptavidin pull-down from nuclear extract; details: reference: nonphosphorylated peptide; sites S304
[3] = molecular target: TopBP1 (UniProt Q92547); experiment: GFP-BLM pull-down, western blot; details: reference: wild type; sites S304
[4] = molecular target: TopBP1 BRCT5 (UniProt Q92547); experiment: GST-BRCT5 pull-down of SFB-BLM from lysate; details: reference: wild type; sites S304
[5] = molecular target: TopBP1 (UniProt Q92547); experiment: GFP-BLM pull-down, western blot; details: reference: wild type; sites S304; remark: listed apart in the source
[6] = molecular target: TopBP1 (UniProt Q92547); experiment: GFP-BLM pull-down, western blot; details: reference: wild type; sites S304; remark: listed apart in the source
[7] = molecular target: TopBP1 BRCT5 (UniProt Q92547); experiment: biotin-peptide (Ser304) pull-down of purified GST-BRCT5; details: reference: nonphosphorylated Ser304 peptide; sites S304

BLM 297-311 (from UniProt P54132) pS304 peptide
binding against the reference [1]: gained | binding against the reference [2]: gained

BLM (from UniProt P54132) S304A
binding against the reference [3]: weaker | binding against the reference [4]: weaker | binding against the reference [5]: weaker | binding against the reference [6]: lost

BLM (from UniProt P54132) pS304 peptide
binding against the reference [7]: gained

Reference: paper PMC4374139
